This data set in a line: soluble on expression in E. coli; label from the status in PepcDB or PDB records.
For “MAAAAAGAGSGPWAAQEKQFPPALLSFFIYNPRFGPREGQEENKILFYHPNEVEKNEKIRNVGLCEAIVQFTRTFSPSKPAKSLHTQKNRQFFNEPEENFWMVMVVRNPIIEKQSKDGKPVIEYQEEELLDKVYSSVLRQCYSMYKLFNGTFLKAMEDGGVKLLKERLEKFFHRYLQTLHLQSCDLLDIFGGISFFPLDKMTYLKIQSFINRMEESLNIVKYTAFLYNDQLIWSGLEQDDMRILYKYLTTSLFPRHIEPELAGRDSPIRAEMPGNLQHYGRFLTGPLNLNDPDAKCRFPKIFVNTDDTYEELHLIVYKAMSAAVCFMIDASVHPTLDFCRRLDSIVGPQLTVLASDICEQFNINKRMSGSEKEPQFKFIYFNHMNLAEKSTVHMRKTPSVSLTSVHPDLMKILGDINSDFTRVDEDEEIIVKAMSDYWVVGKKSDRRELYVILNQKNANLIEVNEEVKKLCATQFNNIFFLD”, the “soluble on expression in E. coli” value is listed as “soluble”.
As for “MAAASVKGFFQRTGISIKEYFKRMGNDYATVARETVQGCKDRPVKAGVVFSGLGFLTYAYQTNPTELEMYDYLCERRQKLVLVPNSEHNPATTKELTARDFLISQNRLHYYNLWFFSLLVASDYNDKLRIYSSQDSNLKDWPWTELWRNIVDIGALGRWHRMETAFVDYDVNTDEIDLLPDGDKN”, the entry is “not soluble”; as for “MAAATGGLTPEQIIAVDGAHLWHPYSSIGREAVSPVVAVAAHGAWLTLIRDGQPIEVLDAMSSWWTAIHGHGHPALDQALTTQLRVMNHVMFGGLTHEPAARLAKLLVDITPAGLDTVFFSDSGSVSVEVAAKMALQYWRGRGLPGKRRLMTWRGGYHGDTFLAMSICDPHGGMHSLWTDVLAAQVFAPQVPRDYDPAYSAAFEAQLAQHAGELAAVVVEPVVQGAGGMRFHDPRYLHDLRDICRRYEVLLIFDEIATGFGRTGALFAADHAGVSPDIMCVGKALTGGYLSLAATLCTADVAHTISAGAAGALMRGPTFMANPLACAVSVASVELLLGQDWRTRITELAAGLTAGLDTARALPAVTDVRVCGAIGVIECDRPVDLAVATPAALDRGVWLRPFRNLVYAMPPYICTPAEITQITSAMVEVARLVGSLP”, “soluble”.
For the sequence “MAADESYPSVKERAFFQGLPFDYAVVFDNALIDRLFSRLRQERALVEDGLLARPDHRPWRLGALITEADTLDRRLSEQIRCLSGQSLPVASIALVTATTEAREAVSLWASVTCPPNVVVTPDPRAWMAEADLDLVVVFAPGALAHPGLFAALGRALQRDGADFAVWNHLLVRRRAEAPGQDITYLRCPDPTRQPVALAHMEAAGPAWAATPRLFETIKGDLGKALIGMARHPLSIALLRGKPKVVRLNEFLGACRVDSLGTPPWPRQSALVEAYGAALEDETFRLEIDPAHPTQPIRLTPRRRAHSIDIVINFRDKPELTLAAMGSIYAQTTTARVSLFLIDNQSTPAARAAIDAEAARAPAGIAVRVLSYDRPFNHSAQTNLGAAAGNGEALVFMSNDCALVDPGALDEMAAWALAPGVGTVGVRLETAEGRLACSGICALYPDHDFHPIVAEGFDQLGAGLNRETFANTFACACLARAVFRQAGPLDAIGFPIGLNDVDYCLRLRERGLRHLYLGAFLARHQALGSRPASDDGAQSAFLRQTYGHLLFDKEYMLEYDFLRQFTAAKLRQDIRSQRDKTTTVLEHHHHHH”, the “soluble on expression in E. coli” value is “not soluble”.
As for “MAAIKINKLLTIESNSSHTLLESMEQAGLEPEYNCRDGHCGACRCQLISGEVEYVGFAMAYTQGNEILPCICRAKTALEIEQVTYQLKAKRA”, the entry is “not soluble”; as for “MAAMPKPAAFWNDRFANEEYVYGEAPNRFVASAARTWLPEAGEVLLLGAGEGRNAVHLAREGHTVTAVDYAVEGLRKTERLATEAGVEVEAIQADVREWKPARAWDAVVVTFLHLPADERPGLYRLVQRCLRPGGRLVAEWFRPLEHHHHHH”, “not soluble”; as for “MAANGAKGRKVMRVLVVDNYDSFTYNLVQYLGELGAEPIVWRNDRFRLEEVEALDPDRILISPGPCTPFEAGLSVPLVQRYAPRYPILGVCLGHQAIGAAFGGKVVPAPVLMHGKVSPIHHDGTGVFRGLDSPFPATRYHSLAVVEVPEALVVNAWAEEAGGRTVMGFRHRDYPTHGVQFHPESYLTEAGKLILKNFLEDPWTR”, “soluble”.
Regarding “MAANGVATLNSSGKLAQMPSASDVGALPITGGEMQGALKLKANQYGGSGPADEKYALDCQNSNIVNVNRILTADPAGSASEGWGFQREDDPDAYDVIWASNGTLYFTPGFKYNTPPYPANQRVLATTDNIALTNYLRQEYNKLKESEGTPTLNDIINGFGFCYNDSSNGAGLDGTYLTVSGMLDNKYRLQLLGQYNGSNWLAYRTRNGDEQSWNPWHKVLTDNINAAISARHQYTSSSYPQIYGNGILQLGGDSRNEYGVVLRSNGTDEANAFRPSVNAGTTGHLYLGVANQKWRAVFAQNGTIQTSDRNAKHDITDLDPEKITAFIMGLKPSSYVFNDADSGRTHWGLISQDIEELFPQLGMTSMDFAGFIKSPKTEDYYEDVPETVTDEETGEEKTVTRKELKTRTVEGEYIYSLRYDEFIAPLICMVQRQQRQIEYLERRLSASESKEEAKLEHHHHHH”, the “soluble on expression in E. coli” value is recorded as “not soluble”.
As for “MAANIQQQFGEQLLRAAQVVEEQIDQEMNKLENLEEDDLEVIRRQRMEQMKKAQKDRIEMLSHGHGKYEEVADEKEFFEATKKSDKVVCLFYLPGNFRCKIVDKHFEILARKHVGTRFIHVNAEKVHFLTTRLNIRVIPSIAIVVKQQTVDYIRGFDELGGKDEFTTETMENRLARSEVLTVEKKHTAPAKKKIIRSGVEEYDNEEDW”, the “soluble on expression in E. coli” value is on record as “not soluble”.
The same measure for “MAAPAAVRRGGRSTSSAMAMDSGRPVTSGILASLCEQWQNQPRTPLSHRSGNLPMSDPDVLIIGAGHNGLTCAAYLARAGLKVKVVERRNVVGGAAVTQEFHPGFRNSVAAYTVSLLNPKVIADLKLHEHGLRIVERKAQNFLPAPDGQYLLTGSNTTAASLARLSAHDAAAFGGFAAELETIADVLRHFVLRAPPNLVVQFGLPAIRESLNALETANRLRALTMEQQRLLLDLFTCSAGEMLDARFEHDLVKALFGFDAIVGNYASPYAAGSAYVMLHHAFGEVNGKKGVWGHAIGGMGAITSAMAAAARAAGAEIETSAGVREVLVEKDRVVGVTLDDGRNVRARFVASNVNPKLLYTRLLPQDALPDDVRRRMQNWKTGSGTFRMNVALSRLPSFTALPGDGDHLTAGIIIAPSLGYMDRAYQDARAHGWSREPVVEMLIPSTLDDSLAPKGQHVASLFCQHVAPELPDGASWDDHRDEVADLMIATVDRYAPGFAASVLGRQILSPLDLEREFGLVGGDIFHGALSLNQLFSARPLLGHADYRGPLKGLYHCGSGAHPGGGVTGAPGHNAAAAILNDHRSLFASRGLEHHHHHH”: “not soluble”; for “MAAPLGGMFSGQPPGPPQAPPGLPGQASLLQAAPGAPRPSSSTLVDELESSFEACFASLVSQDYVNGTDQEEIRTGVDQCIQKFLDIARQTECFFLQKRLQLSVQKPEQVIKEDVSELRNELQRKDALVQKHLTKLRHWQQVLEDINVQHKKPADIPQGSLAYLEQASANIPAPLKPTLEHHHHHH”: “not soluble”; for “MAAQKSALILLPPEDAEEIEVIVTGDVLVRGGLQVLYAGSSTEPVKCAKGARIVPDVALKDVKNKTFDIIIIPGGPGCSKLAECPVIGELLKTQVKSGGLIGAICAGPTVLLAHGIVAERVTCHYTVKDKMTEGGYKYLDDNVVISDRVITSKGPGTAFEFALKIVETLEGPEKTNSLLKPLCLAK”: “not soluble”.
The same measure for “MAASRDIFAPDFRRRPYWWEGYEPPECGEDTLPASADVAIVGGGYTGVCCALALREAGIEAVVLEAGRPGEGASTRSGGQVSGGVNVQKKALAAVGESAGQRAERLAARLRDAAASMAYVESLIERYAIECGWRRTGRLTTMWVPAHYQSWQARLDQLNACTGSQARMIPREELAAEIGSSVYHGAALIEHAGHLQPAQLYGGMLRAARDAGARVLGRTPVERIERRAGGYDVHTARGTVRAGQVVIATIGYTGANLGGLKRRIVPVCTHMIATEALPPDLAASLLPTNRAVSESRRVVNHYRLSPDGRRLLFGGRARFVPTDEATTARLLYRAMLKRFPQLAGTRITHSWGGNVAMTLDSMPHIGGADGLHYALGCNGSGVAMMSYLGHCVGRKIATQSGEPINAFDMGEIPGHPFYFGNPWFLFAIGSWYQARDAYDHWRARLEHHHHHH”: “soluble”.
As for “MAATRAYHHGDLRRSVLSAALEVIRSDGVAAISLRDLARRAEVSHAAPAHHFKDKAGLLTAIATEGFELLAAALTAVPAGTTHRLREMGVRYVEFALDHPAHFDVMFRPQLLHVGDPELTAARERASRALASGVEDLPDMRAGLDARRAGLTAWSLAHGFATLQLGGSLPPLDDDPAEAFRALVADRLVVRLP”, the entry is “not soluble”; as for “MACVDISPLSYESVKSVVKYLSLKKREQINLSIPAYHKTAKLAPFKLENVGLSDLYIEVNDRTWTLSETDIIGCTLVLYRSNGYNFQHIISITPEVAFQKLISEYLRNGTRIKKFHLYALPSLLKNVELHVSELKIDGCDYETFAKFRKFIDHNQKILKEIGFVVRQNTLWMFDEQLVKNSKEIYLQFPYYNPVPLDDMLLRLKNNHVHIIYLGFPIEKLQELAMNWIDTKKPIGTSLFLVVEHYTYVIDVFEHLTKYSKAIPSRLTDLGTSFFSHCVTMHIDESSELVLFGGPMVIEWKPFKWTLRMTIMKRGSTISK”, “not soluble”; as for “MADANATICYLNGLSLHTINEVEKILLALPKKGDRCEVQMSKPLNRCIGRSTGDVIASRSVQIRDEPKPLSLSPQKSEQEIKKSSKSKKLSEDCCLRSIKERVEIVETRNGSDAFGAKKLQYKVLTDQVRVSPIVSCNGVTLELDVEVTIPDRDEKKKLKLEIDRTLSVLILSIRNH”, “not soluble”.
On to “MADANATICYLNGLSLHTINEVEKILLALPKKGDRCEVQVTKPLNGTIGRSTGDVIASKSMQIHDEPRPLSLSPPLQKSEKSSKSKKLSEYSCMSSTKEQMETVEIRNGSNASAAKKLQCKVLTDQVRVSPIVSCNGVILELDVEVTIPDREEKKKLKLEIECPDFVPARIKIGNKWKKIV”, for which the “soluble on expression in E. coli” value is given as “not soluble”.
As for “MADFITRAIELDEQYSQAILGINDQNLKVLENLLDCTIFVRGTRATLSGRDFEVSRGIRVLQELQSMAKRGHAISPDAVKNAVAIVAEDTPHSVNAVLASDIVARRGKVIRAKTLGQKDYVDAIDHNTIVFGLGPAGSGKTYLAMAKAVQALQAKQVNRIILTRPAVEAGEKLGFLPGTLNEKIDPYLRPLHDALRDMVDPEIIPKLMEAGIVEVAPLAYMRGRTLNDAFVILDEAQNTTPAQMKMFLTRLGFGSKMVVTGDITQVDLPGGQKSGLRLVRDILRGVEGVHFAELGSDDVVRHQLVGRIVDAYDAYEEQLKDK”, the “soluble on expression in E. coli” value is “not soluble”.
“MADLFNKHLKKATNRTKEKLLEGIGKAKATQDEVFDQHAANLNKQSKSCEKLHKDVKNYSSALRTLLSAEKQLRDTIRDAYEPEWPDREHLTAIFDNLDIQTNELEKTVCDDLPQTVTQYVNQFPDLKKKIEKRGRKLVDYDSAKNSFNSVKASSKKDNDPKLAKATMELQAAEQMYTEMNNELLEILPAVFDSRITFFVDTLQTLFNANSVYQTDASKFHKQIVMQLDKLGESMDYLRVARPEARALTPIDTTSLASSDAPATPDQNKSDNSSLRQTPSPSVLPSPVPAPMAKPRESVVSMANSTNPFDDDDAEHDKEATPTDVEEKFEAKVYPKLNAQQTAAAEQAIAAAKREKKEASNPFDDEDDESTEVEEAPKKKDPEPTPKPLDGITNEKRKTLYFVTSTHNYKAVDTDELSFEQGVQIKVIEANEDDQLDDGWRLGELEDGKRGVFPENFTKKV”: the “soluble on expression in E. coli” value was “not soluble”.
The same measure for “MADNWGSENVVADAAPATEAPEVALFGKWSLQSVNVSDISLVDYIPVKEKSAKYLPHSAGRFQVRRFRKAACPIVERLANSLMMHGRNNGKKLMTVRIVKHAFEIIYLLTGENPVQVLVNAVINSGPREDSTRIGRAGTVRRQAVDVAPLRRVNQAIWLLCTGAREAAFRNVKTIAECLADELINAAKGSSNSYAIKKKDELERVAKSNR”: “not soluble”.

The values are drawn from the DeepSol protein solubility set.
